{"source": "patent US20220409668A1", "about": "“GENETICALLY MODIFIED HUMAN STEM CELL EXPRESSING A MUTANT HUMAN CYTOCHROME P450 2B6 PROTEIN AND USE THEREOF IN THE TREATMENT OF CANCER” (ASSISTANCE PUBLIQUE-HOPITAUX DE PARIS, priority 2019, published 2022)", "molecules": {"B1": {"name": "CYP2B6*: mutant human cytochrome P450 2B6 protein of SEQ ID No. 1 with 114V, 199M and 477W residues (protein, listed as Homo sapiens)", "chain": "MELSVLLFLALLTGLLLLLVQRHPNTHDRLPPGPRPLPLLGNLLQMDRRGLLKSFLRFREKYGDVFTVHLGPRPVVMLCGVEAIREALVDKAEAFSGRGKIAMVDPFFRGYGVVFANGNRWKVLRRFSVTTMRDFGMGKRSVEERIQEEAQCLIEELRKSKGALMDPTFLFQSITANIICSIVFGKRFHYQDQEFLKMMNLFYQTFSLISSVFGQLFELFSGFLKYFPGAHRQVYKNLQEINAYIGHSVEKHRETLDPSAPKDLIDTYLLHMEKEKSNAHSEFSHQNLNLNTLSLFFAGTETTSTTLRYGFLLMLKYPHVAERVYREIEQVIGPHRPPELHDRAKMPYTEAVIYEIQRFSDLLPMGVPHIVTQHTSFRGYIIPKDTEVFLILSTALHDPHYFEKPDAFNPDHFLDANGALKKTEAFIPFSLGKRICLGEGIARAELFLFFTTILQNFSMASPVAPEDIDLTPQECGWGKIPPTYQIRFLPR"}}, "experiment": "affinity of cytochrome P450 2B6 protein for cyclophosphamide (CPA) and Vmax", "type": "biochemical, human", "source_text": "In a particularly advantageous embodiment, said variants and fragments have an affinity for CPA that is identical, substantially identical or greater than that of the mutant human cytochrome P450 2B6 protein (CYP2B6*) of SEQ ID No. 1. Methods making it possible to assay said activity and said affinity are well known to a person skilled in the art and are particularly described in Nguyen et al., Mol. Pharmacol., 2008, 73: 1,122-1,133.", "data": [{"molecule": "B1", "values": [{"measurement": "affinity for CPA relative to the wild-type protein (CYP2B6 WT)", "setting": "fold greater than CYP2B6 WT, substitutions I114V, L199M, V477W", "value": "more than 8 times"}, {"measurement": "Vmax compared with wild-type protein", "setting": "versus CYP2B6 WT, substrate CPA", "value": "same Vmax"}]}]}
